According to the supplement of paper PMC11865577:

Experiments:
Assay in all cases: pull-down binding Z-score (relative to library population); higher = stronger binding
[1] = test system: TO-N3 (biotin conjugate); settings: RNA library: Library-2
Summary of the method: (§1)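 Binding is given as a Z-score against the library mean and standard deviation, calculated after removing the beads-only signal and averaging barcoded replicate probes without their highest and lowest values. Cy5- or Cy3-end-labelled RNA library (1 μg) was heat-folded in phosphate/NaCl/KCl buffer and incubated 60 min at 25 °C with streptavidin beads bearing 100 pmol of biotin-conjugated small molecule. After three washes, RNA eluted in hot SDS was hybridised to a DNA barcode microarray for 20 h at 55.5 °C.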

[2] = test system: TO-3-N3-2 (biotin conjugate); settings: RNA library: Library-2
Summary of the method: as §1

[3] = test system: TO-3-N3 (biotin conjugate); settings: RNA library: Library-2
Summary of the method: as §1

[4] = test system: TO-N3-2 (biotin conjugate); settings: RNA library: Library-2
Summary of the method: as §1

[5] = test system: G-clamp-N3 (biotin conjugate); settings: RNA library: Library-1 (pre-miRNA loops + repeats)
Summary of the method: as §1

Sequence	pull-down binding Z-score [1]	pull-down binding Z-score [2]	pull-down binding Z-score [3]	pull-down binding Z-score [4]	pull-down binding Z-score [5]
UGAGUGCUAUUUCAGUGCAACA [hsa-mir-362]	0.821	0.108	0.967	0.0784	-0.0128
AUUGCAUGUUCUGGUGGUACCCAUGCAAU [hsa-mir-33a]	0.127	0.0325	0.18	0.382	-0.215
ACCUAACACACUGCCUUUUAUGUGGUAGGU [hsa-mir-5094]	-1.02	-0.66	-0.678	-1.14	-1.19
UCCACAAGGAGGGGAUGACCCUUGUGGG [hsa-mir-4437]	3.14	3.06	4.12	1.37	-0.125
CUGCCAUUGAAAGUAAAGGCAA [hsa-mir-548ag-2]	0.608	0.239	0.656	0.104	0.525
AACAGCUUUGCGAAGUGUUGUU [hsa-mir-4425]	-0.113	-0.137	0.104	-0.553	-0.651
GUCCCAAUACAUGUGGGCC [hsa-mir-586]	-0.22	-0.158	-0.000511	-0.294	-0.0916
GAAUUCGCUUUAUUUAUGUUGAAUC [hsa-mir-377]	-0.944	-0.33	-0.514	-0.874	-0.856
AGCCACUGCGGUCGACCAUGACCUGGA [hsa-mir-619]	0.578	0.0618	0.401	0.721	-0.783
AAAUAAGCUCCAUAUCAAUGAGAAUUUCAAUGGGAUUAUGUG [hsa-mir-4791]	-0.415	-0.0328	-0.569	0.0926	-1.06
CAGCCUGGGGCAUCGGUUG [hsa-mir-5572]	2.01	1.31	2.41	1.02	-0.0198
GAUUGCUAAUAGUACCAAUC [hsa-mir-34c]	0.79	-0.216	0.967	-0.636	-0.0934
UGUGGUGGGUGGUGGCCUGCGGUGAGCAGGGCCCUCA [hsa-mir-1228]	2.36	1.08	1.6	2.1	0.921
UAUUUCAAAAGACUAGAGGUAGGAAAUGAG [hsa-mir-3975]	-0.42	0.381	-0.57	-0.211	2.94
GGCUUUGGCAUCUAUGAAAGCC [hsa-mir-4755]	0.507	-0.302	0.45	-0.233	0.33
ACGAGAGUGAGUAGCAGGUCUC [hsa-mir-128-2]	0.627	0.361	-0.117	1.51	2.31
AAGGGUGUAUGAGAGAUCAACCCUU [hsa-mir-5697]	1.07	-0.0393	0.544	1.19	2.33
AGGGCAGCUCCCAUGACUGCCUGACCGC [hsa-mir-6880]	0.663	0.266	0.15	1.4	-0.549
ACCCUGCAGCCCCAGCUGGAGGAUGAGGAGAUGCUGGGCUUGGGU [hsa-mir-4313]	1.73	1.45	0.794	2.93	1.16
ACCUCCUGGCUUUUCCUCUGCAGCAUGGCUCGGACCUAGUGCAAUGUUUAAGCU [hsa-mir-6826]	0.659	0.506	0.104	0.769	-0.435
UUUGUACGGCACUGUGGCCACGUCCAAA [hsa-mir-497]	-0.0106	-0.306	-0.121	0.0542	-0.884
UGUCAUUGAAAGUAAUAGCA [hsa-mir-548h-3]	-0.141	-0.0124	-0.165	-0.319	-1.07
CCGUUUAAAAAGGCAUCUCCAAG [hsa-mir-608]	0.0887	0.433	0.0622	0.0602	-1.45
GCCUCUUCUCCAUGAGAGGC [hsa-mir-885]	-1.07	-0.322	-0.689	-1.37	1.74

Sequence	pull-down binding Z-score [1]	pull-down binding Z-score [2]	pull-down binding Z-score [3]	pull-down binding Z-score [4]	pull-down binding Z-score [5]
CCGUAUAUAUAUAUAUAUAUAUAUAGAUAUCUCCAUAUAUAUGG [hsa-mir-620]	-1.16	-0.53	-0.865	-0.872	1.15
GAUGUAUCCAAGUACCCUGUGUUAUUUGGCAAUAAAUACAUC [hsa-mir-1298]	-1.27	-0.361	-0.204	-0.35	-1.2
GUGUACAGGGAGGAGACUGUACGUGAGAGAUAGUCAGAUCCGCAUGUUAGAGCAGAGUCUCCUUCGUGUACAG [hsa-mir-4441]	-0.184	-0.183	-0.779	0.631	0.459
AUGGCAUUUAAGGAUUGCUAU [hsa-mir-4477a]	-0.893	-0.473	-0.716	-0.675	0.671
CAGUUGUACUGUGGCUG [hsa-mir-1291]	0.076	0.154	0.0428	0.0227	0.37
CUCAGGACAGCGGGUGUCAGCUUGCCUGAC [hsa-mir-6859-1_6859-3_6859-2_6859-4]	1.12	0.241	0.665	1.4	-0.377
UGCCCUAGCGGCU [hsa-mir-4268]	-0.211	-0.708	-0.212	-0.238	-0.151
AGCUGUGAAAGUCCUAGCU [hsa-mir-1256]	2.17	0.221	0.994	3.94	0.661
CCCGAGGCCCUUCAUGCUGCCCAGCUCGGG [hsa-mir-486-1]	0.727	0.923	0.473	1.19	0.819
UUUGUGGAUUUUGAAAAGGUGCAGG [hsa-mir-15a]	0.277	0.66	-0.119	0.28	1.81
UCGUCAGUGUUUGA [hsa-mir-8073]	-0.468	-0.295	-0.443	-0.296	-0.342
AGAAGCCCAGGUUCUGAAUCCCCU [hsa-mir-6734]	0.628	0.23	0.393	0.901	-1.05
UGUGGUUGGGGCCAUGGCGGGUGGGCAGCCCAGCCUCUGAGCCUUCCU [hsa-mir-1238]	2.76	1.74	2.04	2.37	-0.179
UCCAACCUGAAAUCCUUCUGUAGGUUGAG [hsa-mir-5702]	-0.245	-0.273	-0.291	0.0189	1.18
GCCAGCAACCUGAUUACCCCUCUUUGGC [hsa-mir-6851]	-0.552	-0.495	-0.53	0.533	-0.819
UUUGCCGUCGAAAAUAAUGGCAAA [hsa-mir-548am]	-0.71	-0.146	-0.422	-0.502	-0.204
AACUCCUGCGAGUCCCUGGAGUU [hsa-mir-1258]	-0.0874	-0.146	0.16	-0.163	0.214
AGGCUCUGGGUCCGGCUUACUCCCUAGCUUACUGUCCUCAGAACCC [hsa-mir-6071]	0.311	0.226	-0.173	0.924	-0.386
ACCAUAUCUAAGCUAAUGUGGUGGU [hsa-mir-876]	-0.139	0.00992	-0.157	-0.259	0.651
CUGCUUUUAAAGGUAAUGGCAA [hsa-mir-548ag-1]	0.193	-0.0835	0.107	-0.0105	-0.0258
UACAUAGUUCAUGCUGAGGCCGGGAUUUCAUGCAGAAAACUGGUUGCAAAAGGUGCUGAAG [hsa-mir-6085]	0.573	0.378	-0.189	1.13	-0.725
UUUUCUGGGA [hsa-mir-4456]	-0.484	-0.103	-0.426	-0.251	-0.606
GGGUCGUGGGAAAGUGUUGACCC [hsa-mir-4655]	0.5	0.276	0.166	0.588	1.79
GCUUUCUGUGGUCAGAAAGAAAAGCAAGU [hsa-mir-520f]	0.758	0.704	0.636	0.76	1.15

Sequence	pull-down binding Z-score [1]	pull-down binding Z-score [2]	pull-down binding Z-score [3]	pull-down binding Z-score [4]	pull-down binding Z-score [5]
GGCUGCUGGAUUGAAUUAGCUGCA [hsa-mir-1286]	0.506	0.133	0.023	1.15	-0.74
UCAGCCCCAUAUGUAUCUGAAGGCUGA [hsa-mir-5694]	-0.337	-0.286	-0.404	0.0924	-0.92
GAGUACCUUCCAACACGAGCUCUC [hsa-mir-3664]	0.318	-0.173	-0.183	1.06	-1.16
GCGGGGUGUGGUGGGGCUGGGGCUGGCCCCCUCCUCACACCUC [hsa-mir-6800]	4.29	5.35	4.74	3.96	1.21
UCUUCCCAAAGUUGAGAAAA [hsa-mir-320d-1]	-0.746	-0.407	-0.611	-0.758	-1.32
UUUACAUAUAAAUUUCUAUUUGU [hsa-mir-4503]	0.596	0.317	0.81	-0.557	-1.51
GGCGGCUCGGAGUACCUCUGCCGCC [hsa-mir-6869]	0.666	-0.0436	0.86	-0.0185	0.238
CGGAUCUCGAGGGUGCUUAUUGUUCGGUCCG [hsa-mir-615]	0.185	0.219	0.418	0.351	1.11
UUUGUGGGGCGAGGAGGGACCUGUACUAGCCAUGGUUCUGAUCACAUAUG [hsa-mir-6834]	3.83	2.72	3.06	2.89	0.432
AUUGCACGUGUGUGAGGCGGGUGCAGU [hsa-mir-33b]	0.7	0.102	0.626	0.592	0.513
UCAGCUGUGAGCUCAAGGUGGCUGG [hsa-mir-30c-1]	0.804	0.093	0.424	0.98	1.32
CUCAGCAUGUUGAGCCCUGUCUCUGGGGAGCUGAC [hsa-mir-6505]	0.597	-0.142	0.254	0.878	1.48
CAGUGGGGACAUG [hsa-mir-4531]	1.77	1.52	2.18	0.957	-0.559
GGAAGAAGGCUGAGGGAGAUGCCUUCUUCC [hsa-mir-6512]	-0.155	-0.106	-0.455	1.02	0.436
AUGCACCCAUAUUUUAAUAUCAAACUAUGACAAAUU [hsa-mir-3974]	-0.417	-0.134	-0.386	-0.358	-0.337
CCCGUAGGACACCGAGGCUUAUGAAUAGGA [hsa-mir-6081]	0.345	0.141	-0.16	0.62	-0.941
CAAGUAAAAGGAAUUUUCAUUUUCCAGCCCCUAAUUG [hsa-mir-6739]	-0.811	-0.399	-0.655	-0.628	-1.23
AUGAUAUAUUGUGAGAGCCAUGUCAU [hsa-mir-6718]	-0.0603	-0.0702	0.0536	-0.393	0.0796
UUGUGUGGUAUCCGUAUAGUCACAG [hsa-mir-10b]	-0.277	-0.634	-0.416	-0.0857	-0.0547
GACUGCUCAAGGUCAAAGGGGUC [hsa-mir-3918]	0.367	0.119	0.174	0.66	2.12
GGUUCUUCCCGAAGC [hsa-mir-4710]	0.0409	-0.22	-0.0117	-0.359	0.205
GGGUUGCAUCCUAAGCUGUGCUGGAGCUUCCC [hsa-mir-623]	0.877	0.384	0.567	0.682	-0.84
CAUGUGCUGAGUUCGUGCCAUAUG [hsa-mir-654]	-0.299	-0.228	-0.615	0.41	0.492
AUUACUUGUGUUCUAUAUAAAGUAUU [hsa-mir-92a-2]	-0.716	-0.0463	-0.393	-0.831	-0.855
